The source of these data is patent US5077204A, “Yeast endopeptidase for basic amino-acid site cleavage, preparation and use” (Chiron Corporation, priority 1988, dated 1991).

Assay [1] concerns human proinsulin (alpha-factor leader-proinsulin fusion). In words: Processing of proinsulin in yeast transformed with KEX2 containing vectors. It counts as cell-based, yeast strains AB109 and AB103.1. As to conditions: yeast transformed with pYBCA5-KEX2 versus pYBCA5; cleavage between alpha-factor leader and proinsulin, B/C and C/A junctions. From the text: Plasmids containing proinsulin and KEX2 genes (pYBCA5-KEX2 or pYBCA5-KEX4) or control plasmids with only proinsulin sequences (pYBCA5) or no insert (pCl/1) were used to transform kex2^- mutant yeast strain AB109 (Matα, kex2-1, ade2-1, his^-, leu2-3,112, trpl^-289, ura3-25 ura3-52, (KIL-k), cir° ) or KEX2^+ yeast strain AB103.1 (matα, pep4-3, leu2-3, leu2-112, ura3-52, his4-580, cir° ) following the procedure of Hinnen et al., Proc. Natl. Acad. Sci. USA (1978) 75:1929-1933. Transformants were grown in a low sulfate medium (LSM) containing 0.1 mM (NH4)2 SO4 until mid-exponential phase (OD660 nm 1-3), collected by centrifugation and resuspended in LSM containing 0.25 mCi of carrier free [ ^35 S]SO4^2- at an OD660 =2. After 10 min incubation, a 50-fold excess of (NH4)2 SO4 was added and cells were further incubated for 15-30 min. After centrifugation, proteins present in the cell free extract were precipitated with 12% trichloroacetic acid, 0.5 mg/ml deoxycholate. The precipitate was resuspended, reduced and alkylated and submitted to protein acrylamide gel electrophoresis (Laemmli, Nature (1970) 227:680). Gels were fixed, fluorographed, dried and exposed to Kodak XAR-5 film at -70° C.

Assay [2] concerns the target T1, KEX2 endopeptidase (kex2[YEp24-pJ2B] membranes) (Saccharomyces cerevisiae, UniProt P13134).
T1 construct: not only includes the KEX2 gene, but also the necessary transcriptional and translational regulatory signals for expression in yeast; expressed in transfected cells; host or cells: S. cerevisiae XBH16-15A (MATalpha kex2-1) carrying YEp24-pJ2B
T1 sequence (P13134 114-814): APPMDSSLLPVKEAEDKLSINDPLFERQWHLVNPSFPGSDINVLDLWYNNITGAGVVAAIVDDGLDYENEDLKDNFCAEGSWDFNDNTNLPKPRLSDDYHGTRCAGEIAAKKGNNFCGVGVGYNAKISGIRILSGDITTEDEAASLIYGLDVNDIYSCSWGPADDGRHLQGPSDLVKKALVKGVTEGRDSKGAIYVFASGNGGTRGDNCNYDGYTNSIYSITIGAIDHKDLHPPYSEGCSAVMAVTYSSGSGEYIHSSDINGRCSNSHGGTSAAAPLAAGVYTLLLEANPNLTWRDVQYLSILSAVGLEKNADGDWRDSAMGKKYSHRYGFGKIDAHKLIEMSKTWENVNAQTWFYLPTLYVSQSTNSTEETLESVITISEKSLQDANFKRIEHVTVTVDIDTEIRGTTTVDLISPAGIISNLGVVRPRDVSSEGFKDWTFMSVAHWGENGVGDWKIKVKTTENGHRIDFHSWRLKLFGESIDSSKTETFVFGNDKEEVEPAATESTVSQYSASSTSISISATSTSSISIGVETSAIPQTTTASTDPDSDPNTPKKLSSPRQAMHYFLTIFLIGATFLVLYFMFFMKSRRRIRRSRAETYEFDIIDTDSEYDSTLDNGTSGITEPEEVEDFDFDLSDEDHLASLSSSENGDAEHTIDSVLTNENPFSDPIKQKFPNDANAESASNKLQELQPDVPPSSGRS
In words: Endopeptidase activity in membranes from kex2 cells carrying multicopy plasmid pJ2B (over-produced specific endopeptidase). It counts as biochemical, S. cerevisiae. As for the experimental part: Permeabilization of whole yeast cells with the non-ionic detergent Brij 58, preparation of crude membrane fractions, and measurement of protein concentration were conducted by the methods described previously (Julius et al., 1983, supra), incorporated herein by reference. To measure peptidase activity, samples of permeabilized cells or membrane material were added to a reaction mixture containing 0.1-0.5 mM fluorogenic peptide substrate (added from a 20 mM stock dissolved in DMSO) and 200 mM HEPES-Tris (pH 7.0), in a final volume of 0.4 ml. Following incubation for 30 min at 37° C., whole cells were removed by centrifugation in a microfuge (Eppendorf) and membrane material was removed by Ba(OH)2 -ZnSO4 precipitation. The amount of fluorescence formed in the supernatant solution was determined in a fluorescence spectrophotometer (Perkin-Elmer, Model MPF-44B), set either at an excitation wavelength of 335 nm and an emission wavelength of 410 nm (for measurement of β-naphthylamine) or at an excitation wavelength of 380 nm and an emission wavelength of 460 nm (for measurement of 7-amino-4-methyl-coumarin, AMC). To determine the number of moles of substrate hydrolyzed, the fluorescence yield of samples was compared to a standard curve prepared with known concentrations of authentic AMC dissolved in the same buffer.
Cells of strain XBH1615A that had been transformed with the plasmids
indicated, or that contained pJ2B in integrated form, were grown in SCUra
and membranes were prepared as described in the Experimental.
Endopeptidase activity was assayed as described in the Experimental. All
substrates tested were present at 0.1 mM.
Endopeptidase activity was assayed using Boc--GlnArgArg--MCA as the
substrate, as outlined in the Experimental. All inhibitors were added fro
a 0.1 M stock dissolved in dimethyl sulfoxide.

B1: KEX2 endopeptidase: yeast endopeptidase, product of the KEX2 gene, cleaving on the carboxyl side of a pair of basic amino acids (protein, UniProt P13134 114-814, looked up)
Kexin: T1 sequence (P13134 114-814)
B1: the “Processing of proinsulin (autoradiography of secreted insulin-related bands)” value in assay [1] was “able to process proinsulin at specific cleavage sites”. Besides, in assay [2], the pH optimum is reported as 7.0-7.5. Moreover, the “Activity at pH 5.0” value in assay [2] (pH 5.0) is “little activity detected”. The “Activity at pH 8.5” value in assay [2] (pH 8.5) is “about half-maximal activity”.
